Experimental data from patent US20040024178A1, “Bacterial signal peptidase inhibitors and uses thereof” (priority 1999, published 2004).

Tests used:
[1] = molecular target: T1, S. aureus SpsB signal peptidase (Staphylococcus aureus) (UniProt P0A070); experiment: cell-based or functional assay
T1 sequence: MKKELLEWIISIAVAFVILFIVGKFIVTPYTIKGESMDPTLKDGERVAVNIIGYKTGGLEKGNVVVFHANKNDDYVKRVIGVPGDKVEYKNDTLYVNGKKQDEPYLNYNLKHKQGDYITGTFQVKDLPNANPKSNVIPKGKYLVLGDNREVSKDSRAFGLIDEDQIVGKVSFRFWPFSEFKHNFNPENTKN

[2] = molecular target: T2, Decanoyl-Leu-Thr-Pro-Lys(Bio-X)-Ala-Lys-Ala-Ala-Ser-Lys-Ile-Asp-Asp-Gly-Lys(Flu)-Asp-OH
T2 chain: LTPKAKAASKIDDGKD

[3] = molecular target: T3, Decanoyl-Lys(Bio-X)-Thr-Pro-Thr-Ala-Lys-Ala-Ala-Ser-Lys-Ile-Asp-Asp-Gly-Lys(Flu)-Asp-OH
T3 chain: KTPTAKAASKIDDGKD

[4] = molecular target: T4, Decanoyl-Lys(Flu)-Thr-Pro-Thr-Ala-Lys-Ala-Ala-Ser-Lys-Lys(TAMRA)-Asp-Asp-OH, prep-hplc peak 23C
T4 chain: KTPTAKAASKKDD

[5] = molecular target: T5, Decanoyl-Lys(TAMRA)-Thr-Pro-Thr-Ala-Lys-Ala-Ala-Ser-Lys-Lys(Flu)-Asp-Asp-OH, prep-hplc peak 24C
T5 chain: KTPTAKAASKKDD

[6] = molecular target: T6, Decanoyl-Leu-Thr-Pro-Lys(Bio-X)-Ala-Lys-Ala-Ala-Ser-Lys-Lys(Flu)-Asp-Asp-OH
T6 chain: LTPKAKAASKKDD

[7] = molecular target: T7, Decanoyl-Lys(TAMRA)-Thr-Pro-Thr-Ala-Lys-Ala-Ala-Ser-Lys-Lys(Flu)-Asp-Asp-OH, prep-hplc peak 24D
T7 chain: KTPTAKAASKKDD

[8] = molecular target: T8, Decanoyl-Lys(Flu)-Thr-Pro-Thr-Ala-Lys-Ala-Ala-Ser-Lys-Lys(Bio-X)-Asp-Asp-OH
T8 chain: KTPTAKAASKKDD

Decanoyl-Leu-Thr-Pro-Lys(Bio-X)-Ala-Lys-Ala-Ala-Ser-Lys-Ile-Asp-Asp-Gly-Lys(Flu)-Asp-OH (peptide)
signal change (fluorescence polarisation assay, developed with avidin) [1]: > 150 mP

Decanoyl-Lys(Bio-X)-Thr-Pro-Thr-Ala-Lys-Ala-Ala-Ser-Lys-Ile-Asp-Asp-Gly-Lys(Flu)-Asp-OH (peptide)
signal change (fluorescence polarisation assay, developed with avidin) [1]: > 150 mP

Decanoyl-Lys(TAMRA)-Thr-Pro-Thr-Ala-Lys-Ala-Ala-Ser-Lys-Lys(Flu)-Asp-Asp-OH, prep-hplc peak 24D (peptide)
signal change (fluorescence quench assay) [1]: > 10 fold

Decanoyl-Leu-Thr-Pro-Lys(Bio-X)-Ala-Lys-Ala-Ala-Ser-Lys-Lys(Flu)-Asp-Asp-OH (peptide)
signal change (fluorescence polarisation assay, developed with avidin) [1]: > 150 mP

Decanoyl-Lys(TAMRA)-Thr-Pro-Thr-Ala-Lys-Ala-Ala-Ser-Lys-Lys(Flu)-Asp-Asp-OH, prep-hplc peak 24C (peptide)
signal change (fluorescence quench assay) [1]: > 10 fold

Decanoyl-Lys(Flu)-Thr-Pro-Thr-Ala-Lys-Ala-Ala-Ser-Lys-Lys(Bio-X)-Asp-Asp-OH (peptide)
signal change (fluorescence polarisation assay, developed with avidin) [1]: > 150 mP

B1: S. aureus SpsB signal peptidase (protein)
chain: MKKELLEWIISIAVAFVILFIVGKFIVTPYTIKGESMDPTLKDGERVAVNIIGYKTGGLEKGNVVVFHANKNDDYVKRVIGVPGDKVEYKNDTLYVNGKKQDEPYLNYNLKHKQGDYITGTFQVKDLPNANPKSNVIPKGKYLVLGDNREVSKDSRAFGLIDEDQIVGKVSFRFWPFSEFKHNFNPENTKN
catalytic efficiency kcat/Km (fluorescence polarisation assay) [2]: kcat/Km >/=8000 M^-1 sec^-1 | catalytic efficiency kcat/Km (fluorescence polarisation assay) [3]: kcat/Km >/=8000 M^-1 sec^-1 | catalytic efficiency kcat/Km (fluorescence quench assay) [4]: kcat/Km >/=5000 M^-1 sec^-1 | catalytic efficiency kcat/Km (fluorescence quench assay) [5]: kcat/Km >/=5000 M^-1 sec^-1 | catalytic efficiency kcat/Km (fluorescence polarisation assay) [6]: kcat/Km >/=8000 M^-1 sec^-1 | kcat/Km (fluorescence correlation spectroscopy assay) [6]: kcat/Km=6800 M^-1s^-1 | catalytic efficiency kcat/Km (fluorescence quench assay) [7]: kcat/Km >/=5000 M^-1 sec^-1 | catalytic efficiency kcat/Km (fluorescence polarisation assay) [8]: kcat/Km >/=8000 M^-1 sec^-1
